Paper PMC3807668, “Structure of the CRISPR Interference Complex CSM Reveals Key Similarities with Cascade” (Molecular Cell, 2013)
Where “and” joins values, the source holds several entries; their conditions need not be identical. Identical values can stand only once.

T1: Sso1428 with C-terminal tandem tag (Strep and 10x His) (S. solfataricus, UniProt Q97YA4 1-558, methylation (residues not given))
T1 chain: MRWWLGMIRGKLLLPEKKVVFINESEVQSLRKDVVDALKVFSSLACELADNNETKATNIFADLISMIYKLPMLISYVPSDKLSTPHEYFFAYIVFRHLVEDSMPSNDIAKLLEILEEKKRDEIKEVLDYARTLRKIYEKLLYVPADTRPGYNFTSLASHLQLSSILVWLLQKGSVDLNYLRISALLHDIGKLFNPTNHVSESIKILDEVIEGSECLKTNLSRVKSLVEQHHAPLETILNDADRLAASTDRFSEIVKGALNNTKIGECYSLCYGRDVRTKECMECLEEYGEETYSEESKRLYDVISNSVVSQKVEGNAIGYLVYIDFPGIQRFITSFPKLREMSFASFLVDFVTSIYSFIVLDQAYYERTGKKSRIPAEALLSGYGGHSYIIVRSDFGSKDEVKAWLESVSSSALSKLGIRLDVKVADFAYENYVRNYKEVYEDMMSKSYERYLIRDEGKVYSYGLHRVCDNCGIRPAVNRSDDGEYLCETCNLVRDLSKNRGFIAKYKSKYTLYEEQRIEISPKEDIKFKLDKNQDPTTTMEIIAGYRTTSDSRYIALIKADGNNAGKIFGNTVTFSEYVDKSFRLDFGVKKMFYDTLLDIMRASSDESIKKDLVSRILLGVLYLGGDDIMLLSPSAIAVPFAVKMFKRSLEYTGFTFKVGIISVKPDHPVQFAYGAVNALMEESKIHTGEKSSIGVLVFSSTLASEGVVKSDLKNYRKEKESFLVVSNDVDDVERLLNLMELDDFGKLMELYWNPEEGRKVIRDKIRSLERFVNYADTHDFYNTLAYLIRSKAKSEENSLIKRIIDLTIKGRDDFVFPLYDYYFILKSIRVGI

B1: Sso1427 (natural protein, UniProt Q97YA5 1-275, looked up)
chain: MQRSPIRRSNYTPRNEKGLEGVIELQLNVVSDYLHVGSGKYDVEVMRSVSDVKRLVEDYLSGGNKRIPNNVDQYFSMVAFLMVRNKDNVVIPGSTIKGMVRSRLELSVPGSCYIVTGHSTSSSAVYKRIFNPDPNRGSDRFDVNKFPQVCPVCDLLGNMGLASRVSLSDFVMTSGKVDYVNVKGRDYEVVTKGSIFAGKVLYKSLKPVEIGMLLYGFGFVKDCNGSKVMLLGRFKFSDKRFGRVKFSLKTPIADCNKLVSDFVKQFNPRYINEEW
modifications: methylation (residues not given)
notes: Sso1427, RAMP subunit of the CSM complex of S. solfataricus; its mass lies within 70 Da of that of Sso1426; also called RAMP subunit; Csm3 paralog; source: endogenous, S. solfataricus PH1-16; co-purified with the tagged subunit (HisTrap, monoQ, gel filtration)
B2: Sso1430 (natural protein, UniProt Q97YA2 1-206, looked up)
chain: MIPIKVSMRNLSSLTIAGGSTISSIDIPLNPLGVPPSTIKGTMRTAVHNLLPNGYTSCGEVEPESIREAHKNGVCDVCKLFGYPDSLTGCFTIDVSKTDYRTSYITRVSIDDKTQRAKEGSLFTQQIILPNSDISFTVYYNCNDERLFKLLLYSILDLRYWRLGRNTMIDVKVNNVEEICKSVKCDEEINGILNQLSRYLWEAENK
modifications: methylation (residues not given)
notes: Sso1430, subunit of the CSM complex of S. solfataricus; also called RAMP subunit; Csm3 paralog; source: endogenous, S. solfataricus PH1-16; co-purified with the tagged subunit (HisTrap, monoQ, gel filtration)
B3: Sso1431 (untagged, in the complex purified by tagged Sso1428) (natural protein, UniProt Q97YA1 1-304, looked up)
chain: MILIKLKVKGYITTQMRRIRNYYFSITNYIPSTTLRGAILAEYYNQTGKIDENFYVSPAYPIKTAPAHYFSPAKERKGDEFIEVKRILEKKEKEFEANKPIEEIMKLEIDGKHPKPKIGSLITYEGETDKENKYREFSSKSIIQMHVAIDKTSISSYKGMLFAYEYKEFDEMWAIASDSEVIDTVKRIKIGRGKNRGNKVVDVEKVREVSLDQSKGLLYCLSPCIGSLFGKTFFKAKYIIGDKSIYSGWFTVDSFSGQKPVFETLREGSLVYVESFSNEKSLMPAGLNFMLRISDLSSILNKVS
modifications: methylation; phosphorylation (residues not given)
notes: Csm4 (Sso1431, Cas5 subfamily RAMP protein) of the CSM complex of S. solfataricus; also called Csm4; Cas5-like RAMP subunit; source: endogenous, S. solfataricus PH1-16; co-purified with tagged Sso1428 (HisTrap, monoQ, gel filtration)

How the values were obtained:
[1] = biological target: T1, Sso1428 with C-terminal tandem tag …; assay: quantitative proteomics with isotope-labelled dipeptides (LC-MS); purified CSM complex spiked with synthetic (15N,13C)-labelled dipeptides joining a peptide of each subunit to the reference peptide of Sso1428, trypsin digest, LTQ-Orbitrap; ratio of peak areas; conditions: both partners purified
[2] = biological target: T1, Sso1428 with C-terminal tandem tag …; assay: native MS + other: quantitative proteomics with isotope-labelled peptides; exhaustive mass search on the intact mass 427,611 Da; copy numbers of Sso1424, Sso1425 and Sso1426 allowed to vary by one, the others fixed by Table 1; one hit within a mass error of 3%; conditions: both partners purified
[3] = biological target: B3; assay: native MS; purified CSM complex disassembled in 200 mM ammonium acetate with 5%-20% acetic acid (pH 3.9, 3.5, 3.2); subcomplexes of 357 to 120 kDa assigned by tandem MS; interaction map deduced from the disassembly pattern with the help of the EM shape; conditions: both partners purified
[4] = biological target: the molecule itself; assay: native MS + other: quantitative proteomics with isotope-labelled peptides; exhaustive mass search on the intact mass 427,611 Da; copy numbers of Sso1424, Sso1425 and Sso1426 allowed to vary by one, the others fixed by Table 1; one hit within a mass error of 3%
Sso1430 = biological target: B2; assay: native MS; purified CSM complex disassembled in 200 mM ammonium acetate with 5%-20% acetic acid (pH 3.9, 3.5, 3.2); subcomplexes of 357 to 120 kDa assigned by tandem MS; interaction map deduced from the disassembly pattern with the help of the EM shape; conditions: both partners purified
Sso1427 = biological target: B1; assay: cross-linking; purified CSM complex (1 ug/ul) with a 1:1 mixture of d4 and d0 BS3, 1 hr at room temperature; cross-linked peptides found by MS (MassMatrix) and validated by hand; conditions: both partners purified

stoichiometry N [1] | stoichiometry N [2] | binding result [3] | binding result (Sso1430) | binding result (Sso1427) | Binder | stoichiometry N [4] [copies]
0.8 subunit:Sso1428 and 0.79 subunit:Sso1428 and 0.83 subunit:Sso1428 and 0.81 subunit:Sso1428 | 1 subunit:Sso1428 | binds |  |  | B1 | 
1.45 subunit:Sso1428 and 1.35 subunit:Sso1428 and 1.56 subunit:Sso1428 | 1 subunit:Sso1428 |  |  |  | Sso1425 (natural protein, UniProt Q97YA7 1-250, looked up, methylation; phosphorylation (residues not given), Sso1425, RAMP subunit of the CSM complex of S. solfataricus; also called RAMP subunit; Csm3 paralog; source: endogenous, S. solfataricus PH1-16; co-purified with the tagged subunit (HisTrap, monoQ, gel filtration)) MKMSCMDLDVITTVVKIEGKLRNETLLRVGKGKTQDFAEATDNPIIKYRDRPLIPGSSLKGAFRSLVESYTKSLNDSKYYVCDLDDNSCVSCEEKKKDNGIVEGRYCIPCILFGFKDLASRVYILDAIAEKYSISQRTMVAINRVFGGQMPGHLYTLDYVDPGSEFSFMMMIYNLNLIEGEKDWKAKSVEALKFLLATLVREGIFVGARKSVGYGLIKLVDAKVSLYKAPDHLVSPVIVKKLEEVIGTNG | 
4.85 subunit:Sso1428 and 4.81 subunit:Sso1428 and 4.73 subunit:Sso1428 and 4.8 subunit:Sso1428 | 4 subunit:Sso1428 |  |  |  | Sso1426 (natural protein, UniProt Q97YA6 1-281, looked up, methylation (residues not given), Sso1426, RAMP subunit assigned to the Csm3 (Cas7-like) family, CSM complex of S. solfataricus; four copies in the CSM complex; its mass lies within 70 Da of that of Sso1427; also called Csm3; Cas7 family RAMP subunit; source: endogenous, S. solfataricus PH1-16; co-purified with the tagged subunit (HisTrap, monoQ, gel filtration)) MVLMVNYTFIDKRVIKRTTMIEGDVETVSPLKIGGGKDNFDPSSLAKDSILKDVEGRPIIPGSSWKGIFRSTGERILRLRNIEVCSGIGKDYCLNNNRKERDFNSALKENVDQALEIFWDYTCLNCKVFGTMSVIGAVRFLDSLPISYSLNTRSMIAISRTEGAVARRALVTVEYVDVGSKFSFKMMGYNLPNYAIGYLITIMKNIHDGFTQVGGHKSRGFGFVKFGKVKFTDLGEKRIGDEDIQVKDVGDLVEGNGDEFFGRMKPFMEAFNNAKIPYPKK | 4
0.92 subunit:Sso1428 and 0.91 subunit:Sso1428 and 0.96 subunit:Sso1428 and 0.93 subunit:Sso1428 | 1 subunit:Sso1428 |  |  |  | Sso1432 (natural protein, UniProt Q97YA0 1-252, looked up, methylation (residues not given), Sso1432, RAMP subunit of the CSM complex of S. solfataricus; also called RAMP subunit; Csm3 paralog; source: endogenous, S. solfataricus PH1-16; co-purified with the tagged subunit (HisTrap, monoQ, gel filtration)) MVIQVFRLNFRLRTGFRVGGGQEVGDNVIRQLRIGVEGVMIPASSWKGMFRRVSEIVLNSEDHFEEHSKKEVDTRTINALLKSDEKFRRIAISKVGKEVITQNGINVDKLDSESLSDLRRIYNEYNCPIERLYGSNYFAGGITISDSVIPNASIMERTHVTIERKSKKASEKHLFSEEIIDAEKIEVKVIVRNEFELWKNSLKLLREIGYFIGGSKSRGIGYIVLDEKESEYAVINNFSETPKFSELKRYLS | 
 | 1 subunit:Sso1428 |  |  |  | B2 | 
3.62 subunit:Sso1428 and 3.51 subunit:Sso1428 and 4.03 subunit:Sso1428 and 3.72 subunit:Sso1428 | 3 subunit:Sso1428 |  | binds | binds | Sso1424 (natural protein, UniProt Q97YA8 16-139, looked up, acetylated N-terminal Ser-16; seven methylated lysines (positions not given), Sso1424, small subunit (probably Csm2) of the CSM complex of S. solfataricus; three copies in the CSM complex; also called small subunit; Csm2; source: endogenous, S. solfataricus PH1-16; co-purified with the tagged subunit (HisTrap, monoQ, gel filtration)) SSQDLLDIATRIAISAIKPKPKSNKPEPYVDSSTINSLLSFLQSRRNVNELLLYIMRQAGRDEIDEETGKLLLASLKDRELKDAVNLLGYVKWVYDTLTGLKVNYNNVKGVKTFKELVNILSKV | 3
0.67 subunit:Sso1428 and 0.65 subunit:Sso1428 and 0.7 subunit:Sso1428 | 1 subunit:Sso1428 |  |  |  | B3 | 
